Measured values published in IntAct's records for PubMed 29039417.

B1: BBSome complex member BBS2 (Homo sapiens), Q9BXC9 (parent)
chain: MLLPVFTLKLRHKISPRMVAIGRYDGTHPCLAAATQTGKVFIHNPHTRNQHVSASRVFQSPLESDVSLLSINQAVSCLTAGVLNPELGYDALLVGTQTNLLAYDVYNNSDLFYREVADGANAIVLGTLGDISSPLAIIGGNCALQGFNHEGSDLFWTVTGDNVNSLALCDFDGDGKKELLVGSEDFDIRVFKEDEIVAEMTETEIVTSLCPMYGSRFGYALSNGTVGVYDKTSRYWRIKSKNHAMSIHAFDLNSDGVNELITGWSNGKVDARSDRTGEVIFKDNFSSAIAGVVEGDYRMDGHIQLICCSVDGEIRGYLPGTAEMRGNLMDTSAEQDLIRELSQKKQNLLLELRNYEENAKAELASPLNEADGHRGIIPANTRLHTTLSVSLGNETQTAHTELRISTSNDTIIRAVLIFAEGIFTGESHVVHPSIHNLSSSICIPIVPPKDVPVDLHLKAFVGYRSSTQFHVFESTRQLPRFSMYALTSLDPASEPISYVNFTIAERAQRVVVWLGQNFLLPEDTHIQNAPFQVCFTSLRNGGHLHIKIKLSGEITINTDDIDLAGDIIQSMASFFAIEDLQVEADFPVYFEELRKVLVKVDEYHSVHQKLSADMADHSNLIRSLLVGAEDARLMRDMKTMKSRYMELYDLNRDLLNGYKIRCNNHTELLGNLKAVNQAIQRAGRLRVGKPKNQVITACRDAIRSNNINTLFKIMRVGTASS
partner: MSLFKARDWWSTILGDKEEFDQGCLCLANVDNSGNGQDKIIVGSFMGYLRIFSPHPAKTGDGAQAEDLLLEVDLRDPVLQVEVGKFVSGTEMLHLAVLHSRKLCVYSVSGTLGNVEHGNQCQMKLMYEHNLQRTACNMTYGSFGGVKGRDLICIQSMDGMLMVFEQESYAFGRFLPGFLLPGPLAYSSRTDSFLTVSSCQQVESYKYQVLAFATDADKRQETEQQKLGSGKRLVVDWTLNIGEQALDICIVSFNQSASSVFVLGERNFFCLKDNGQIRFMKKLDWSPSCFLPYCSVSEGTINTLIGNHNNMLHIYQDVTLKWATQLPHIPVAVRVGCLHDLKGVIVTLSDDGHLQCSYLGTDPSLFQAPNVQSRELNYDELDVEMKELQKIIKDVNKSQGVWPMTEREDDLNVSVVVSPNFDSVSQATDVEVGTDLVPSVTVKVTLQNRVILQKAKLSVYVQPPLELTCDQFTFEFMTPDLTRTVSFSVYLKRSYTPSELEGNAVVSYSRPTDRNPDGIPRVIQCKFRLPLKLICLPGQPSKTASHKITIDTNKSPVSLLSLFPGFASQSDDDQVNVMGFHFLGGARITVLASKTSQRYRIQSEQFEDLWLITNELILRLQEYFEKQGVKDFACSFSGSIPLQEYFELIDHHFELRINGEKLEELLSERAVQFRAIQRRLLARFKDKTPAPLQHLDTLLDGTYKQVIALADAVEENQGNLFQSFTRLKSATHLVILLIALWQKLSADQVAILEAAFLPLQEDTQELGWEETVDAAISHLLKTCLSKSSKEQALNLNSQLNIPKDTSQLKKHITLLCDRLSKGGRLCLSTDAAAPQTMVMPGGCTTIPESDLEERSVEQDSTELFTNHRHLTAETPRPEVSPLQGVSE

Variants of: B1
Conditions: with pthb1_human BBS9, Q3SYG4

Effect of a mutation on the interaction, with no effect:
R703E
T709E
T709A
T709K
N706A
N706K
N706E
R715E
R715A
R715K
M714A
M714K
M714E
I702E
I702K
N705E
N705A
N705K
S720K
S720E
S720A
F711K
F711E
F711A
N708K
N708E
N708A
L710A
L710E
L710K
S704A
S704K
S704E
